Measurements published in patent US20260193317A1, “COMBINATION THERAPY WITH ACTRIIB RECEPTOR VARIANTS AND GLP-1 AGONISTS” (35PHARMA Inc., priority 2023, published 2026).

What was measured:
[1] = molecular target: T1, activin A (Homo sapiens, UniProt P08476); test: Small-scale activin A ELISA with CHO supernatants; conditions: 1 μg/mL protein, 30 ng/mL activin A, loss of signal = binding
T1 sequence (P08476 311-426): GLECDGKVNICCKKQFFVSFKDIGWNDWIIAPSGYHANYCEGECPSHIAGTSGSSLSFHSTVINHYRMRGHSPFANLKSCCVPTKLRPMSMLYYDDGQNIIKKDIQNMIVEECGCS
Method: (§1) Small-scale testing of ActRIIB-ECD fusion proteins. Additional investigation of a series of exemplary agents was performed using proteins expressed in CHO cells. Briefly, DNA encoding the ActRIIB-ECD-Fc fusion constructs was transfected in cells seeded in 12-well plates in a final volume of 1 ml. After 7 days, the supernatant was harvested, clarified, and the amount of expressed protein in each well was quantified using standard methods. The potency of each agent for inhibition of activin A, BMP-9 and BMP-10 was determined in three separate assays.
The next day, the plate was washed three times with buffer (Biolegend #421601). […] Expressed proteins in the supernatants described above were diluted to 2 μg/mL in assay diluent (0.5% BSA, 0.05% tween-20 in PBS), mixed 1:1 with recombinant human activin A (R&D #338-AC, 60 ng/mL, diluted in assay diluent). Complexes were immediately added to the 96-well plate in technical duplicates and incubated for 1 h at RT (concentration of expressed protein and activin A on the plate were 1 μg/mL and 30 ng/mL, respectively). […] In this assay, a loss of signal indicates binding of the exemplary agent to activin A, which prevents activin A binding to the anti-activin A antibody on the plate. Results are expressed as a % of the signal obtained with wild-type ActRIIB-Fc (P75).

[2] = molecular target: T2, BMP-9 (Homo sapiens, UniProt Q9UK05); test: Small-scale BMP-9 ELISA with CHO supernatants; assay type: binding; conditions: BMP-9 10 ng/mL
T2 sequence (Q9UK05 320-429): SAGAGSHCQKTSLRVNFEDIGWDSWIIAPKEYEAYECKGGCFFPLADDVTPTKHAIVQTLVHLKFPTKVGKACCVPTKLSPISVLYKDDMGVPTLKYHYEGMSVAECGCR
Method: as §1
The next day, the plate was washed three times. […] Expressed proteins in the supernatants were diluted 1 in 2 in assay diluent (0.5% BSA, 0.05% tween-20 in PBS) and 100 μl was added to the 96-well plate in technical duplicates. After a 1.5-hour incubation at RT, the plate was washed three times. […] In this assay, a loss of signal indicates less binding of the exemplary agent to BMP-9. Results are expressed as a % of the signal obtained with wild-type ActRIIB-Fc (P75).

[3] = molecular target: T3, BMP-10 (Homo sapiens, UniProt O95393); test: Small-scale BMP-10 BMP-reporter cell-based assay, single concentration; conditions: […] protein, 40 ng/mL BMP-10
T3 sequence (O95393 317-424): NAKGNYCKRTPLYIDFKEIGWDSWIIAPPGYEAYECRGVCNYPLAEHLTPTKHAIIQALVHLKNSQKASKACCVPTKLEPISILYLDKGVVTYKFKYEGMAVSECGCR
Method: Characterization of the BMP-9 and BMP-10 inhibition potency (IC50) of the fusion proteins was performed using a second cell-based reporter assay. Human hepatic HepG2 cells were transfected with a SEAP-encoding plasmid, in which SEAP expression is under the control of the murine Id1 promoter. A stable pool was generated from this transfection. Cells were grown in EMEM, containing 10% heat-inactivated FBS and 200 μg/mL zeocin (hereafter, “HepG2 growth medium”). […] For all assays, cells were seeded in 96-well plates at a confluence of 100,000 cells per well in HepG2 growth medium. Cells were left to attach for 10 minutes at RT prior to being transferred to a 37° C. incubator (5% CO2) overnight. […] At the end of the incubation, absorbance was read at 650 nm. […]
Small-scale testing of ActRIIB-ECD fusion proteins. […] After 7 days, the supernatant was harvested, clarified, and the amount of expressed protein in each well was quantified using standard methods. The potency of each agent for inhibition of activin A, BMP-9 and BMP-10 was determined in three separate assays.
To determine potency on BMP-10, the same BMP-reporter cell line was used as described above. […] Results are expressed as a % of the signal obtained with the cytokine alone. […]

[4] = molecular target: T3, BMP-10; test: BMP-10 binding by bio-layer interferometry (BLI); conditions: single concentration 12.5 nM BMP-10
Method: To determine potency on BMP-10, the same BMP-reporter cell line was used as described above. A final concentration of 2.5 nM of each expressed protein was tested in the presence of 40 ng/mL of BMP-10 (R&D #2926-BP). In this assay, a loss of signal indicates neutralization of BMP-10 by the exemplary agent. Results are expressed as a % of the signal obtained with the cytokine alone. A separate assay was used to estimate BMP-10 binding, using bio-layer interferometry (BLI) on a Gator® Plus instrument (Gator Bio, Palo Alto, USA). An anti-Human IgG Fc Gen II probe (#160024, Gator Bio) was loaded with expressed proteins in CHO supernatants, following which BMP-10 binding kinetics (single concentration, 12.5 nM) were assessed.

[5] = tested on: DIO mice; test: Body composition in high fat diet mice, alone and in combination with incretin mimetics; assay type: in vivo; conditions: for Fat mass (% change from baseline) / Lean mass (% change from baseline): as E44, NMR
Method: Experiments were performed in vivo to investigate the potential for additive or synergistic effects between exemplary ActRIIB-ECD polypeptide constructs and incretin mimetics.

[6] = Coformulation of P1372 and semaglutide: weight and body composition in mice (FIG. 18); assay type: in vivo
[7] = Single subcutaneous injection in CD-1 mice: body weight; assay type: in vivo; conditions: CD-1 male mice, single s.c. injection; P1229 50 mg/kg, semaglutide 2 mg/kg
[8] = tested on: follicle-stimulating hormone (FSH); test: Circulating FSH levels in CD-1 mice; assay type: in vivo; conditions: single s.c. injection, P1229 50 mg/kg, semaglutide 2 mg/kg
Method: Finally, circulating FSH levels were assessed throughout the study (FIG. 20D). […] This confirms that the expected pharmacodynamic effect of P1229 was not altered in the context of the co-formulation.

[9] = molecular target: T4, recombinant human activin A (human, UniProt P08476 311-426); test: cell-based or functional assay
T4 sequence (looked up): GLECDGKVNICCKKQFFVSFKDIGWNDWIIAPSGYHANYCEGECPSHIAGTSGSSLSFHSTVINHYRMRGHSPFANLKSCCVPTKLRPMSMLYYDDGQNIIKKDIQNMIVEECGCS

[10] = molecular target: T5, activin B (UniProt P09529 293-407); test: cell-based or functional assay
T5 sequence (looked up): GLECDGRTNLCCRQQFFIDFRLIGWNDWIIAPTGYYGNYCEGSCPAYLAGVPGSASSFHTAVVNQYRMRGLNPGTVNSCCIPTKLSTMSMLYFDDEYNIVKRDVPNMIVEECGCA

[11] = molecular target: GDF-8 (UniProt O14793 267-375); test: cell-based or functional assay
[12] = molecular target: GDF-11 (UniProt O95390 299-407); test: cell-based or functional assay
[13] = molecular target: T6, BMP-9 (UniProt Q9UK05 320-429); test: cell-based or functional assay
T6 sequence (looked up): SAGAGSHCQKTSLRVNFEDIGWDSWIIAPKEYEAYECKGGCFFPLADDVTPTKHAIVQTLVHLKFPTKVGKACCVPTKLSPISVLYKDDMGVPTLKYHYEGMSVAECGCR

[14] = molecular target: T7, BMP-10 (UniProt O95393 317-424); test: cell-based or functional assay
T7 sequence (looked up): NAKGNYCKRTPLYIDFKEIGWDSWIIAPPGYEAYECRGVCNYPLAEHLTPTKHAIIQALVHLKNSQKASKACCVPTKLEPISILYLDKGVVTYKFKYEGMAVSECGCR

[15] = molecular target: T4, recombinant human activin A; test: direct ELISA, activin A coated, anti-human Fc-HRP; co-formulation with semaglutide, D 0
Method: (§2) In each case, the following parameters were assessed: a) monomer content (size exclusion chromatography), b) activin A and GDF-8 neutralization (cell-based assays [CBAs]), c) activin A binding (ELISA), d) GLP-1 receptor binding (ELISA).
(§3) Potency testing by ELISA. […] Blocking buffer (1% BSA, 0.05% tween-20 in PBS, 300 μL/well) was added to each well and the plate was incubated for 1 hour at RT. Starting at 2.5 μg/mL, test agents were diluted in assay diluent (1% BSA, 0.05% tween-20 in PBS, 100 μL/well) and loaded on the plate for 1 h at RT.

[16] = molecular target: T4, recombinant human activin A; test: direct ELISA, activin A coated, anti-human Fc-HRP; co-formulation with semaglutide, D 7 at 2-8°C
Method: as §2, §3

[17] = molecular target: T4, recombinant human activin A; test: direct ELISA, activin A coated, anti-human Fc-HRP; co-formulation with semaglutide, D 28 at 2-8°C
Method: as §2, §3

[18] = molecular target: T4, recombinant human activin A; test: direct ELISA, activin A coated, anti-human Fc-HRP; co-formulation with semaglutide, D 7 at room temperature
Method: as §2, §3

[19] = molecular target: T4, recombinant human activin A; test: direct ELISA, activin A coated, anti-human Fc-HRP; co-formulation with semaglutide, D 28 at room temperature
Method: as §2, §3

Chain of GDF-11 (O95390 299-407 limits assumed): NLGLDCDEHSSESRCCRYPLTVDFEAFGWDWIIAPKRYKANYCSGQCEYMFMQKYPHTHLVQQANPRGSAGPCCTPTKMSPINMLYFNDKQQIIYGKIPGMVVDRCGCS

P444: WT hActRIIA, 3 aa linker (GGG), IgG1 Fc; SEQ ID 173 [reference compound]
activin A binding, ELISA signal relative to P75 [1]: comparable activin A binding profile to P75 | BMP-9 binding, ELISA signal relative to P75 [2]: near undetectable binding to BMP-9 | BMP-10 neutralization, signal relative to BMP-10 alone [3]: less neutralization (i.e., greater signal) than P75 | BMP-10 KD by bio-layer interferometry [4]: higher KD (lower affinity) than P75

semaglutide [reference compound]
Body weight (% change from baseline) ([5]; DIO mice, 21 days s.c., P1307 20 mg/kg weekly, P1229 40 mg/kg twice weekly, semaglutide 40 μg/kg daily, tirzepatide 45 μg/kg daily, alone or combined): −17.5% | visceral, epididymal, pericardial, peri-renal, and retroperitoneal white adipose tissue weights ([5]; DIO mice, D21): significantly decreased all white adipose tissue weights | gastrocnemius and tibialis anterior weights ([5]; DIO mice, D21, P1229 with or without caloric restriction): no significant effect on muscle weights | Fat mass (% change from baseline) [5]: −30.3% | Lean mass (% change from baseline) [5]: −10.6% | Fat mass (% change from baseline) ([5]; listed as semaglutide): −30.3% | Lean mass (% change from baseline) ([5]; listed as semaglutide): −10.6% | lean muscle mass ([6]; 3 weeks): significant loss of lean muscle mass | total weight loss ([6]; 3 weeks after treatment): significant weight loss | body weight [7]: decreased body weight | decrease of circulating FSH levels [8]: did not show a significant effect

B1: P1372 (Fc fusion)
chain: ETRECIYYNANWELERTNQSGLERCEGEQDKRWHCYASWRNSSGTIELVKKGCWLDDFNCYDRQECVATEENPQVYFCCCEGNFCNERFTHLPEAGGPEVTYEPPPTGGGGSGGGGSGGGGTHTCPPCPAPELLGGPSVFLFPPKPKDTLYITREPEVTCVVVDVSHEDPEVKFNWYVDGVEVHNAKTKPREEQYNSTYRVVSVLTVLHQDWLNGKEYKCKVSNKALPAPIEKTISKAKGQPREPQVYTLPPSRDELTKNQVSLTCLVKGFYPSDIAVEWESNGQPENNYKTTPPVLDSDGSFFLYSKLTVDKSRWQQGNVFSCSVMHEALHNHYTQKSLSLSPG
notes: also tested in co-formulation with semaglutide, tirzepatide or retatrutide; also called ActRIIB ligand trap P1372
Activin A IC50; TGFβ-reporter HEK293 cells [9]: 0.56 nM | Activin B IC50; TGFβ-reporter HEK293 cells [10]: 2 nM | GDF-8 IC50; TGFβ-reporter HEK293 cells [11]: 0.18 nM | GDF-11 IC50; TGFβ-reporter HEK293 cells [12]: 0.53 nM | BMP-9 IC50; BMP-reporter HepG2 cells [13]: > 1000 nM | BMP-10 IC50; BMP-reporter HepG2 cells [14]: > 100 nM | ELISA potency fold-change vs P1372 alone (ref = 1) [15]: 0.98 fold | ELISA potency fold-change vs P1372 alone (ref = 1) [16]: 0.85 fold | ELISA potency fold-change vs P1372 alone (ref = 1) [17]: 1.3 fold | ELISA potency fold-change vs P1372 alone (ref = 1) [18]: 1.4 fold | ELISA potency fold-change vs P1372 alone (ref = 1) [19]: 0.79 fold
